Results from patent US11066455B2, “Tmem100 peptides and variants thereof and their use in treating or preventing diseases or conditions” (The Johns Hopkins University, priority 2014, dated 2021).
* marks the point of attachment. Myristoyl = CCCCCCCCCCCCCC(=O)*

Assays:
[1] = tested on: capsaicin-induced nocifensive behavior in WT mice; assay: Capsaicin injection: acute nocifensive behavior; assay type: in vivo, mouse; settings: capsaicin 0.6 μg, peptide 2 mM
Method: Mice were injected with 6 μL of capsaicin (0.1 μg/μL in normal saline/10% ethanol/0.5% Tween 80) in the hindpaws. The mice were placed in a plexiglass cylinder, and the total time spent licking and flinching was recorded for the first 10 minutes after injection.
The sequence from the last 28 amino acids of the C-terminus of the Tmem100-3Q mutant protein was synthesized and myristoylated at its N-terminus (myr-[…]-COOH) (SEQ ID NO: 8) by Twentyfirst Century Biochemicals. […] For the calcium imaging assay, the peptides were added to the calcium imaging buffer with a final concentration of 200 nM and incubated for at least […] at room temperature. For the mice behavioral assays, the peptides (5 μL, 2 mM) were injected subcutaneously in the hindpaw at least 30 minutes before testing. For the rat behavior assays, human T100-3Q (h-T100), a palmitoylated cell permeable peptide mutated based on the C terminus of human sequence in Tmem100, was applied. The sequence is Palmitoyl-[…]-COOH (SEQ ID NO: 7).

[2] = target: TRPA1 (expressed in heterologous cells: CHO, HEK293T); assay: cell-based or functional assay
[3] = target: TRPV1 (expressed in heterologous cells: CHO, HEK293T); assay: cell-based or functional assay
TRPA1 = tested on: T1, TRPA1; assay: MO-gated whole-cell voltage clamp in CHO cells expressing TRPA1+TRPV1; assay type: cell-based; settings: Vh=-60 mV; TRPA1+TRPV1+Tmem100-3Q (1:1:4) CHO cells
T1 construct: MO (10 μM)-evoked Ca2+ influx; other: TRPA1+TRPV1+Tmem100-3Q (1:1:4) CHO cells; MO (10 μM)-gated whole-cell current density; other: Vh=-60 mV; TRPA1+TRPV1+Tmem100-3Q (1:1:4) CHO cells; MO (10 μM)-induced single-channel activity (NPo); co-expressed with TRPA1+TRPV1 (1:1:4) in CHO cells
Method: Recordings were made in cell-attached single-channel or whole-cell voltage clamp configurations at 22-24° C. from the somata of small-to-medium mouse DRG neurons (15-35 pF) or CHO cells. For whole-cell configuration, holding potential (Vh) is −60 mV. Data were acquired and analyzed using an Axopatch 200B amplifier and pCLAMP9.0 software (Molecular Devices, Sunnyvale, Calif.). Borosilicate pipettes (Sutter, Novato, Calif.) were pulled and polished to resistances of 3-5 MΩ (in whole-cell and single-channel pipette solutions). Access resistance (Rs) was compensated (40-80%) when appropriate up to the value 7-10 MΩ for whole-cell configuration. Whole-cell recording data were filtered at 0.5 kHz and sampled at 2 kHz. Single-channels currents were filtered with an 8-pole, low pass Bessel filter at 0.1 kHz and sampled at 0.5 kHz, since dwelling time (τ) of the TRPA1 and TRPV1 single-currents were >0.5 sec. Whole-cell recorded data were rejected when Rs changed >20% during recording, leak currents were >100 pA, or input resistance was <200 MΩ.
Standard external solution (SES) for whole-cell patch recording contained (in mM): 140 NaCl, 5 KCl, 2 CaCl2, 1 MgCl2, 10 D-glucose and 10 HEPES, pH 7.4. Vehicle, which is 0.01% DMSO, was added to external solutions. […] The baseline activities of the cells were recorded for 1-2 min prior drug applications. […]

Sequence of TRPA1 (expressed in heterologous cells: CHO, HEK293T) (O75762 whole entry): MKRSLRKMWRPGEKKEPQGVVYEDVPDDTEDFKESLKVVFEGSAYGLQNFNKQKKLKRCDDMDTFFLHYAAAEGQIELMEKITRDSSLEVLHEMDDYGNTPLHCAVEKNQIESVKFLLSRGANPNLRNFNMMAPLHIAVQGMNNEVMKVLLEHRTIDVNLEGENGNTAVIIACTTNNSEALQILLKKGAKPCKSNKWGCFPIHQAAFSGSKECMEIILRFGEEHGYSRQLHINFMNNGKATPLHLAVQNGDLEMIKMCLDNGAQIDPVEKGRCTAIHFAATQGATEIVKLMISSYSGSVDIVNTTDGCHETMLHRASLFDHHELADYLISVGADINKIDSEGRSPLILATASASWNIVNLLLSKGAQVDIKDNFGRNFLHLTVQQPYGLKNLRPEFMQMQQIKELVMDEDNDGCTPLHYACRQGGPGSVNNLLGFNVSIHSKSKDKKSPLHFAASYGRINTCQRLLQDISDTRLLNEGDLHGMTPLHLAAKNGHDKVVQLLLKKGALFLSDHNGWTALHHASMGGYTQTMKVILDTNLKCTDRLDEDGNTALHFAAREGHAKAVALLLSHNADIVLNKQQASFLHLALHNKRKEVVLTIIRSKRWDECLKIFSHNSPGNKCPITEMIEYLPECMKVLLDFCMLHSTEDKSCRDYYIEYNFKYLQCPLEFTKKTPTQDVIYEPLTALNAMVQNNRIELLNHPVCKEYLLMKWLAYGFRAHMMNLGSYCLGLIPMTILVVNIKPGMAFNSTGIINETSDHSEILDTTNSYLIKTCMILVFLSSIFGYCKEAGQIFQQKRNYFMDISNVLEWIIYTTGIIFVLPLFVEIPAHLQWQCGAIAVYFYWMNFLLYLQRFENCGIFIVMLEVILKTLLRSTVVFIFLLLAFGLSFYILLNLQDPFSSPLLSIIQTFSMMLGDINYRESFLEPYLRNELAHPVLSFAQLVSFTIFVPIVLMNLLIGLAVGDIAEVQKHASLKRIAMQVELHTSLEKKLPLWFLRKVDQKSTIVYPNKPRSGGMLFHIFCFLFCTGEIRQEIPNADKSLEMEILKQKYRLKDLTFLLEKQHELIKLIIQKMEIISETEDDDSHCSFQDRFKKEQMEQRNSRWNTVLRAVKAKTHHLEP

myr-QRVLEQVLQNWSRRANVKQAQKFQVKCT-COOH (Myristoyl-QRVLEQVLQNWSRRANVKQAQKFQVKCT-OH; SMILES CCCCCCCCCCCCCC(=O)N[C@@H](CCC(N)=O)C(=O)N[C@@H](CCCNC(=N)N)C(=O)N[C@H](C(=O)N[C@@H](CC(C)C)C(=O)N[C@@H](CCC(=O)O)C(=O)N[C@@H](CCC(N)=O)C(=O)N[C@H](C(=O)N[C@@H](CC(C)C)C(=O)N[C@@H](CCC(N)=O)C(=O)N[C@@H](CC(N)=O)C(=O)N[C@@H](Cc1c[nH]c2ccccc12)C(=O)N[C@@H](CO)C(=O)N[C@@H](CCCNC(=N)N)C(=O)N[C@@H](CCCNC(=N)N)C(=O)N[C@@H](C)C(=O)N[C@@H](CC(N)=O)C(=O)N[C@H](C(=O)N[C@@H](CCCCN)C(=O)N[C@@H](CCC(N)=O)C(=O)N[C@@H](C)C(=O)N[C@@H](CCC(N)=O)C(=O)N[C@@H](CCCCN)C(=O)N[C@@H](Cc1ccccc1)C(=O)N[C@@H](CCC(N)=O)C(=O)N[C@H](C(=O)N[C@@H](CCCCN)C(=O)N[C@@H](CS)C(=O)N[C@H](C(=O)O)[C@@H](C)O)C(C)C)C(C)C)C(C)C)C(C)C) [scrambled]
acute nocifensive behaviors induced by intradermal capsaicin injection [1]: 70 ± 11 s

B1: Tmem100-3Q mutant (full-length, mouse) (protein)
chain: MTEESTKENLGAPKSPTPVTMEKNPKREVVVTTGPLVSEVQLMAATGGAELSCYRCIIPFAVVVFITGIVVTAVAYSFNSHGSIISIFGLVLLSSGLFLLASSALCWKVRQRNKKVQQQESQTALVVNQRCLFA
MO (10 µM)-induced single-channel activity (NPo), CHO cells [2]: 1.05 | CAP (100 nM)-induced single-channel activity (NPo), CHO cells [3]: 0.73 | MO (10 μM)-gated whole-cell current density (TRPA1): 39.16±12.5 pA/pF
